Results on nine molecules are retold here after patent US20250339531A1, “DUX4 POLYPEPTIDES AND NUCLEIC ACIDS FOR TREATING INFLAMMATORY AND AUTOIMMUNE CONDITIONS” (Fred Hutchinson Cancer Center, priority 2021, published 2025).

Sequences and labels used below:
B1: Q9UN86 (protein, UniProt Q9UN86 1-482, looked up)
chain: MVMEKPSPLLVGREFVRQYYTLLNKAPEYLHRFYGRNSSYVHGGVDASGKPQEAVYGQNDIHHKVLSLNFSECHTKIRHVDAHATLSDGVVVQVMGLLSNSGQPERKFMQTFVLAPEGSVPNKFYVHNDMFRYEDEVFGDSEPELDEESEDEVEEEQEERQPSPEPVQENANSGYYEAHPVTNGIEEPLEESSHEPEPEPESETKTEELKPQVEEKNLEELEEKSTTPPPAEPVSLPQEPPKAFSWASVTSKNLPPSGTVSSSGIPPHVKAPVSQPRVEAKPEVQSQPPRVREQRPRERPGFPPRGPRPGRGDMEQNDSDNRRIIRYPDSHQLFVGNLPHDIDENELKEFFMSFGNVVELRINTKGVGGKLPNFGFVVFDDSEPVQRILIAKPIMFRGEVRLNVEEKKTRAARERETRGGGDDRRDIRRNDRGPGGPRGIVGGGMMRDRDGRGPPPRGGMAQKLGSGRGTGQMEGRFTGQRR
modifications: full-length
B2: P26196 (protein, UniProt P26196 1-483, looked up)
chain: MSTARTENPVIMGLSSQNGQLRGPVKPTGGPGGGGTQTQQQMNQLKNTNTINNGTQQQAQSMTTTIKPGDDWKKTLKLPPKDLRIKTSDVTSTKGNEFEDYCLKRELLMGIFEMGWEKPSPIQEESIPIALSGRDILARAKNGTGKSGAYLIPLLERLDLKKDNIQAMVIVPTRELALQVSQICIQVSKHMGGAKVMATTGGTNLRDDIMRLDDTVHVVIATPGRILDLIKKGVAKVDHVQMIVLDEADKLLSQDFVQIMEDIILTLPKNRQILLYSATFPLSVQKFMNSHLQKPYEINLMEELTLKGVTQYYAYVTERQKVHCLNTLFSRLQINQSIIFCNSSQRVELLAKKISQLGYSCFYIHAKMRQEHRNRVFHDFRNGLCRNLVCTDLFTRGIDIQAVNVVINFDFPKLAETYLHRIGRSGRFGHLGLAINLITYDDRFNLKSIEEQLGTEIKPIPSNIDKSLYVAEYHSEPVEDEKP
modifications: full-length
B3: Q63ZY3 (protein, UniProt Q63ZY3 1-851, looked up)
chain: MAQVLHVPAPFPGTPGPASPPAFPAKDPDPPYSVETPYGYRLDLDFLKYVDDIEKGHTLRRVAVQRRPRLSSLPRGPGSWWTSTESLCSNASGDSRHSAYSYCGRGFYPQYGALETRGGFNPRVERTLLDARRRLEDQAATPTGLGSLTPSAAGSTASLVGVGLPPPTPRSSGLSTPVPPSAGHLAHVREQMAGALRKLRQLEEQVKLIPVLQVKLSVLQEEKRQLTVQLKSQKFLGHPTAGRGRSELCLDLPDPPEDPVALETRSVGTWVRERDLGMPDGEAALAAKVAVLETQLKKALQELQAAQARQADPQPQAWPPPDSPVRVDTVRVVEGPREVEVVASTAAGAPAQRAQSLEPYGTGLRALAMPGRPESPPVFRSQEVVETMCPVPAAATSNVHMVKKISITERSCDGAAGLPEVPAESSSSPPGSEVASLTQPEKSTGRVPTQEPTHREPTRQAASQESEEAGGTGGPPAGVRSIMKRKEEVADPTAHRRSLQFVGVNGGYESSSEDSSTAENISDNDSTENEAPEPRERVPSVAEAPQLRPAGTAAAKTSRQECQLSRESQHIPTAEGASGSNTEEEIRMELSPDLISACLALEKYLDNPNALTERELKVAYTTVLQEWLRLACRSDAHPELVRRHLVTFRAMSARLLDYVVNIADSNGNTALHYSVSHANFPVVQQLLDSGVCKVDKQNRAGYSPIMLTALATLKTQDDIETVLQLFRLGNINAKASQAGQTALMLAVSHGRVDVVKALLACEADVNVQDDDGSTALMCACEHGHKEIAGLLLAVPSCDISLTDRDGSTALMVALDAGQSEIASMLYSRMNIKCSFAPMSDDESPTSSSAEE
modifications: full-length
B4: Q13263 (protein, UniProt Q13263 1-835, looked up)
chain: MAASAAAASAAAASAASGSPGPGEGSAGGEKRSTAPSAAASASASAAASSPAGGGAEALELLEHCGVCRERLRPEREPRLLPCLHSACSACLGPAAPAAANSSGDGGAAGDGTVVDCPVCKQQCFSKDIVENYFMRDSGSKAATDAQDANQCCTSCEDNAPATSYCVECSEPLCETCVEAHQRVKYTKDHTVRSTGPAKSRDGERTVYCNVHKHEPLVLFCESCDTLTCRDCQLNAHKDHQYQFLEDAVRNQRKLLASLVKRLGDKHATLQKSTKEVRSSIRQVSDVQKRVQVDVKMAILQIMKELNKRGRVLVNDAQKVTEGQQERLERQHWTMTKIQKHQEHILRFASWALESDNNTALLLSKKLIYFQLHRALKMIVDPVEPHGEMKFQWDLNAWTKSAEAFGKIVAERPGTNSTGPAPMAPPRAPGPLSKQGSGSSQPMEVQEGYGFGSGDDPYSSAEPHVSGVKRSRSGEGEVSGLMRKVPRVSLERLDLDLTADSQPPVFKVFPGSTTEDYNLIVIERGAAAAATGQPGTAPAGTPGAPPLAGMAIVKEEETEAAIGAPPTATEGPETKPVLMALAEGPGAEGPRLASPSGSTSSGLEVVAPEGTSAPGGGPGTLDDSATICRVCQKPGDLVMCNQCEFCFHLDCHLPALQDVPGEEWSCSLCHVLPDLKEEDGSLSLDGADSTGVVAKLSPANQRKCERVLLALFCHEPCRPLHQLATDSTFSLDQPGGTLDLTLIRARLQEKLSPPYSSPQEFAQDVGRMFKQFNKLTEDKADVQSIIGLQRFFETRMNEAFGDTKFSAVLVEPPPMSLPGAGLSSQELSGGPGDGP
modifications: full-length
B5: P52597 (protein, UniProt P52597 1-415, looked up)
chain: MMLGPEGGEGFVVKLRGLPWSCSVEDVQNFLSDCTIHDGAAGVHFIYTREGRQSGEAFVELGSEDDVKMALKKDRESMGHRYIEVFKSHRTEMDWVLKHSGPNSADSANDGFVRLRGLPFGCTKEEIVQFFSGLEIVPNGITLPVDPEGKITGEAFVQFASQELAEKALGKHKERIGHRYIEVFKSSQEEVRSYSDPPLKFMSVQRPGPYDRPGTARRYIGIVKQAGLERMRPGAYSTGYGGYEEYSGLSDGYGFTTDLFGRDLSYCLSGMYDHRYGDSEFTVQSTTGHCVHMRGLPYKATENDIYNFFSPLNPVRVHIEIGPDGRVTGEADVEFATHEEAVAAMSKDRANMQHRYIELFLNSTTGASNGAYSSQVMQGMGVSAAQATYSGLESQSVSGCYGAGYSGQNSMGGYD
modifications: full-length
B6: Q8NC51 (protein, UniProt Q8NC51 1-408, looked up)
chain: MPGHLQEGFGCVVTNRFDQLFDDESDPFEVLKAAENKKKEAGGGGVGGPGAKSAAQAAAQTNSNAAGKQLRKESQKDRKNPLPPSVGVVDKKEETQPPVALKKEGIRRVGRRPDQQLQGEGKIIDRRPERRPPRERRFEKPLEEKGEGGEFSVDRPIIDRPIRGRGGLGRGRGGRGRGMGRGDGFDSRGKREFDRHSGSDRSSFSHYSGLKHEDKRGGSGSHNWGTVKDELTESPKYIQKQISYNYSDLDQSNVTEETPEGEEHHPVADTENKENEVEEVKEEGPKEMTLDEWKAIQNKDRAKVEFNIRKPNEGADGQWKKGFVLHKSKSEEAHAEDSVMDHHFRKPANDITSQLEINFGDLGRPGRGGRGGRGGRGRGGRPNRGSRTDKSSASAPDVDDPEAFPALA
modifications: full-length
B7: P55209 (protein, UniProt P55209 1-391, looked up)
chain: MADIDNKEQSELDQDLDDVEEVEEEETGEETKLKARQLTVQMMQNPQILAALQERLDGLVETPTGYIESLPRVVKRRVNALKNLQVKCAQIEAKFYEEVHDLERKYAVLYQPLFDKRFEIINAIYEPTEEECEWKPDEEDEISEELKEKAKIEDEKKDEEKEDPKGIPEFWLTVFKNVDLLSDMVQEHDEPILKHLKDIKVKFSDAGQPMSFVLEFHFEPNEYFTNEVLTKTYRMRSEPDDSDPFSFDGPEIMGCTGCQIDWKKGKNVTLKTIKKKQKHKGRGTVRTVTKTVSNDSFFNFFAPPEVPESGDLDDDAEAILAADFEIGHFLRERIIPRSVLYFTGEAIEDDDDDYDEEGEEADEEGEEEGDEENDPDYDPKKDQNPAECKQQ
modifications: full-length
B8: CDK4 (protein)
chain: ATSRYEPVAEIGVGAYGTVYKARDPHSGHFVALKSVRVPNGGGGGGGLPISTVREVALLRRLEAFEHPNVVRLMDVCATSRTDREIKVTLVFEHVDQDLRTYLDKAPPPGLPAETIKDLMRQFLRGLDFLHANCIVHRDLKPENILVTSGGTVKLADFGLARIYSYQMALTPVVVTLWYRAPEVLLQSTYATPVDMWSVGCIFAEMFRRKPLFCGNSEADQLGKIFDLIGLPPEDDWPRDVSLPRGAFPPRGPRPVQSVVPEMEESGAQLLLEMLTFNPHKRISAFRALQHSYLHKDEGNPE
B9: Q15233 (protein, UniProt Q15233 1-471, looked up)
chain: MQSNKTFNLEKQNHTPRKHHQHHHQQQHHQQQQQQPPPPPIPANGQQASSQNEGLTIDLKNFRKPGEKTFTQRSRLFVGNLPPDITEEEMRKLFEKYGKAGEVFIHKDKGFGFIRLETRTLAEIAKVELDNMPLRGKQLRVRFACHSASLTVRNLPQYVSNELLEEAFSVFGQVERAVVIVDDRGRPSGKGIVEFSGKPAARKALDRCSEGSFLLTTFPRPVTVEPMDQLDDEEGLPEKLVIKNQQFHKEREQPPRFAQPGSFEYEYAMRWKALIEMEKQQQDQVDRNIKEAREKLEMEMEAARHEHQVMLMRQDLMRRQEELRRMEELHNQEVQKRKQLELRQEEERRRREEEMRRQQEEMMRRQQEGFKGTFPDAREQEIRMGQMAMGGAMGINNRGAMPPAPVPAGTPAPPGPATMMPDGTLGLTPPTTERFGQAATMEGIGAIGGTPPAFNRAAPGAEFAPNKRRRY
modifications: full-length

One assay relates to proteins that co-immunoprecipitated with DUX4-CTD constructs expressed in MB135 myoblasts. The experiment in a line: LC-MS of proteins co-immunoprecipitated with DUX4-CTD (Table 1) and western validation. The class given is binding, human. More on the design: key to 4. mL1dL2 + Dox + IFNG / 4. + IFNG mix / 4. longCTD + Dox + IFNG / 3. + IFNg + Dox longCTD / 3. + Dox longCTD / 3. + IFNG longCTD: peptide-spectrum matches (PSMs) per protein. Particulars: LC-MS counts of the listed protein co-immunoprecipitated with DUX4-CTD bait longCTD; experiment 4, Dox + IFNG. The method in brief:
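FLAG-tagged DUX4-CTD expressed in doxycycline-induced MB135 myoblasts, some also IFNG-treated; nuclear lysates in pH 7.4 NP-40 IP buffer were pre-cleared, then anti-FLAG immunoprecipitated 3 h at 4 °C. For LC-MS, FLAG-peptide elution, in-gel trypsin digest, Orbitrap analysis; proteins with ≥2 PSMs in both experiments categorised and ranked by total PSMs.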
Take B1: the “4. longCTD + Dox + IFNG” value came out at 1.

As for B2, the “4. longCTD + Dox + IFNG” value turned out to be 1.

B3: the “4. longCTD + Dox + IFNG” value was 4.

As to B4, the “4. longCTD + Dox + IFNG” value came to 2.

As for B5, the “4. longCTD + Dox + IFNG” value was determined as 1.

On to B6, for which the “4. longCTD + Dox + IFNG” value is 1.

Turning to B7, the “4. longCTD + Dox + IFNG” value is 3.

The assay is the same for the next values; noted with them: LC-MS value per protein co-immunoprecipitated with DUX4-CTD construct mL1dL2 in MB135 myoblasts; + Dox + IFNG; kind of count not given.
Regarding B8, the “4. mL1dL2 + Dox + IFNG” value is on record as 3.

Still in this assay, the particulars now being: bait longCTD; experiment 3, Dox only.
On to B1, for which the “3. + Dox longCTD” value worked out at 1.

As to B2, the “3. + Dox longCTD” value is 2.

As for B3, the “3. + Dox longCTD” value was 3.

Take B9: the “3. + Dox longCTD” value was 1.

As for B5, the “3. + Dox longCTD” value is reported as 1.

Turning to B6, the “3. + Dox longCTD” value is 2.

Staying with this assay, now noted: bait longCTD; experiment 3, IFNg + Dox.
On to B1, for which the “3. + IFNg + Dox longCTD” value is on record as 3.

In the case of B2, the “3. + IFNg + Dox longCTD” value came out at 3.

As for B3, the “3. + IFNg + Dox longCTD” value worked out at 3.

Take B4: the “3. + IFNg + Dox longCTD” value is 1.

Regarding B9, the “3. + IFNg + Dox longCTD” value is reported as 8.

Take B5: the “3. + IFNg + Dox longCTD” value was 4.

Take B6: the “3. + IFNg + Dox longCTD” value was 3.

Turning to B7, the “3. + IFNg + Dox longCTD” value was 5.

Staying with this assay, now noted: sum over all samples.
As for B1, the “SUM of PSMS” value is listed as 6.

Turning to B2, the “SUM of PSMS” value turned out to be 6.

With B3, the “SUM of PSMS” value came to 11.

For B4, the “SUM of PSMS” value stood at 12.

Regarding B9, the “SUM of PSMS” value turned out to be 10.

Take B5: the “SUM of PSMS” value came out at 6.

Turning to B6, the “SUM of PSMS” value was found to be 6.

For B7, the “SUM of PSMS” value turned out to be 10.
